pKd: −log10 of the molar value.

Broadly, the pKd is the Kd on a negative log10 scale, so that one unit is a factor of ten. A word on the koff: it is the rate constant with which the complex falls apart. In general, kon refers to a measure of how fast the partners come together.

For this assay, the target named is His-tagged human FcRn/β2-microglobulin complex (human) (UniProt P55899). The experiment in a line: SPR; Biacore 8K, CM5 chip; His-tagged human FcRn/β2-microglobulin captured (45-60 RU) on covalently linked anti-His antibody; IgG1 injected as two-fold, eight-step series 75 nM to 0.29 nM; 25 °C; 20 mM phosphate pH 6.0, 137 mM NaCl, 2.7 mM KCl, 0.05% Tween-20; 1:1 binding model, apparent constants, KD = kd/ka; n=3 …. (In general: Surface plasmon resonance follows binding to a sensor surface in real time, without labels.)
Sequence of UniProt P55899 (P55899 24-297, chain 1 of 2): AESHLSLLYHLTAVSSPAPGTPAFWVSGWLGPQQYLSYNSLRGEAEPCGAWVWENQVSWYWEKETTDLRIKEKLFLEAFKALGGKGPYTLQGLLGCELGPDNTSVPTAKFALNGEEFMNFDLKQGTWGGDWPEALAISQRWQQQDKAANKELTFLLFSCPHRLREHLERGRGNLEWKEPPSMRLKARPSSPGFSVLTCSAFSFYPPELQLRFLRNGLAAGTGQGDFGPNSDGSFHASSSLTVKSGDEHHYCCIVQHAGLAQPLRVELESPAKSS
Sequence of UniProt P55899 (P61769 21-119, chain 2 of 2, further chain): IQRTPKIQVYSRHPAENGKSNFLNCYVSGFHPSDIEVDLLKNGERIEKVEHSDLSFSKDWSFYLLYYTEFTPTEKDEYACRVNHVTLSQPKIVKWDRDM

Regarding IgG1-Campath (antibody), the pKd is 7.17, the koff is 0.0439 s⁻¹ and the kon is 649000 M⁻¹ s⁻¹.

The values are drawn from paper PMC9546771.
